To fix the notation:
B1: pre-miR-98 mono-U (structured_RNA)
RNA: UGAGGUAGUAAGUUGUAUUGUUGUGGGGUAGGGAUAUUAGGCCCCAAUUAGAAGAUAACUAUACAACUUACUACUUUCCU
modifications: 5'-monophosphate; 3'-OH; one extra 3' U
B2: pre-let-7a-1 mono-U (structured_RNA)
RNA: UGAGGUAGUAGGUUGUAUAGUUUUAGGGUCACACCCACCACUGGGAGAUAACUAUACAAUCUACUGUCUUUCU
modifications: 5'-monophosphate; 3'-OH; one extra 3' U
B3: pre-let-7g mono-U (structured_RNA)
RNA: UGAGGUAGUAGUUUGUACAGUUUGAGGGUCUAUGAUACCACCCGGUACAGGAGAUAACUGUACAGGCCACUGCCUUGCU
modifications: 5'-monophosphate; 3'-OH; one extra 3' U
B4: pre-let-7b mono-U (structured_RNA)
RNA: UGAGGUAGUAGGUUGUGUGGUUUCAGGGCAGUGAUGUUGCCCCUCGGAAGAUAACUAUACAACCUACUGCCUUCCU
modifications: 5'-monophosphate; 3'-OH; one extra 3' U
B5: pre-let-7d mono-U (structured_RNA)
RNA: AGAGGUAGUAGGUUGCAUAGUUUUAGGGCAGGGAUUUUGCCCACAAGGAGGUAACUAUACGACCUGCUGCCUUUCU
modifications: 5'-monophosphate; 3'-OH; one extra 3' U
B6: pre-let-7a-1 (7a1) (structured_RNA)
RNA: UGAGGUAGUAGGUUGUAUAGUUUUAGGGUCACACCCACCACUGGGAGAUAACUAUACAAUCUACUGUCUUUC
modifications: 5'-monophosphate; 3'-OH
B7: pre-let-7d (7d) (structured_RNA)
RNA: AGAGGUAGUAGGUUGCAUAGUUUUAGGGCAGGGAUUUUGCCCACAAGGAGGUAACUAUACGACCUGCUGCCUUUC
modifications: 5'-monophosphate; 3'-OH
B8: pre-let-7a-3 (7a3) (structured_RNA)
RNA: UGAGGUAGUAGGUUGUAUAGUUUGGGGCUCUGCCCUGCUAUGGGAUAACUAUACAAUCUACUGUCUUUC
modifications: 5'-monophosphate; 3'-OH
B9: pre-let-7g (7g) (structured_RNA)
RNA: UGAGGUAGUAGUUUGUACAGUUUGAGGGUCUAUGAUACCACCCGGUACAGGAGAUAACUGUACAGGCCACUGCCUUGC
modifications: 5'-monophosphate; 3'-OH
B10: pre-let-7i (7i) (structured_RNA)
RNA: UGAGGUAGUAGUUUGUGCUGUUGGUCGGGUUGUGACAUUGCCCGCUGUGGAGAUAACUGCGCAAGCUACUGCCUUGC
modifications: 5'-monophosphate; 3'-OH
B11: pre-miR-98 (m98) (structured_RNA)
RNA: UGAGGUAGUAAGUUGUAUUGUUGUGGGGUAGGGAUAUUAGGCCCCAAUUAGAAGAUAACUAUACAACUUACUACUUUCC
modifications: 5'-monophosphate; 3'-OH
B12: pre-let-7b (7b) (structured_RNA)
RNA: UGAGGUAGUAGGUUGUGUGGUUUCAGGGCAGUGAUGUUGCCCCUCGGAAGAUAACUAUACAACCUACUGCCUUCC
modifications: 5'-monophosphate; 3'-OH
B13: pre-let-7f-2 (7f2) (structured_RNA)
RNA: UGAGGUAGUAGAUUGUAUAGUUUUAGGGUCAUACCCCAUCUUGGAGAUAACUAUACAGUCUACUGUCUUUC
modifications: 5'-monophosphate; 3'-OH
B14: pre-let-7e (7e) (structured_RNA)
RNA: UGAGGUAGGAGGUUGUAUAGUUGAGGAGGACACCCAAGGAGAUCACUAUACGGCCUCCUAGCUUUCC
modifications: 5'-monophosphate; 3'-OH
B15: pre-let-7a-2 (7a2) (structured_RNA)
RNA: UGAGGUAGUAGGUUGUAUAGUUUAGAAUUACAUCAAGGGAGAUAACUGUACAGCCUCCUAGCUUUCC
modifications: 5'-monophosphate; 3'-OH
B16: pre-let-7c (7c) (structured_RNA)
RNA: UGAGGUAGUAGGUUGUAUGGUUUAGAGUUACACCCUGGGAGUUAACUGUACAACCUUCUAGCUUUCC
modifications: 5'-monophosphate; 3'-OH
B17: pre-miR-202 (m202) (structured_RNA)
RNA: UUCCUAUGCAUAUACUUCUUUGAGGAUCUGGCCUAAAGAGGUAUAGGGCAUGGGAAAA
modifications: 5'-monophosphate; 3'-OH

The target of one series is T1, ciDicer (catalytically inactive human Dicer) (Homo sapiens, UniProt Q9UPY3 1-1922, D1320A;D1709A). As to the kind of experiment: EMSA; range over five mono-U RNAs; individual value only in figure; EMSA: 50 mM Tris pH 7.6, 50 mM NaCl, 10% glycerol, 0.05% NP-40, 2 mM DTT, 4 °C, 30 min, 2 pM 32P-RNA; 4-15% native PAGE in Tris-glycine; RNA heated 95 °C and snap-cooled; no Mg2+ added to DB buffer. The conditions noted are these: protein: recombinant; label: 5'-32P; hairpin, 2-nt 3' overhang.
T1 sequence (Q9UPY3 whole entry D1320A/D1709A): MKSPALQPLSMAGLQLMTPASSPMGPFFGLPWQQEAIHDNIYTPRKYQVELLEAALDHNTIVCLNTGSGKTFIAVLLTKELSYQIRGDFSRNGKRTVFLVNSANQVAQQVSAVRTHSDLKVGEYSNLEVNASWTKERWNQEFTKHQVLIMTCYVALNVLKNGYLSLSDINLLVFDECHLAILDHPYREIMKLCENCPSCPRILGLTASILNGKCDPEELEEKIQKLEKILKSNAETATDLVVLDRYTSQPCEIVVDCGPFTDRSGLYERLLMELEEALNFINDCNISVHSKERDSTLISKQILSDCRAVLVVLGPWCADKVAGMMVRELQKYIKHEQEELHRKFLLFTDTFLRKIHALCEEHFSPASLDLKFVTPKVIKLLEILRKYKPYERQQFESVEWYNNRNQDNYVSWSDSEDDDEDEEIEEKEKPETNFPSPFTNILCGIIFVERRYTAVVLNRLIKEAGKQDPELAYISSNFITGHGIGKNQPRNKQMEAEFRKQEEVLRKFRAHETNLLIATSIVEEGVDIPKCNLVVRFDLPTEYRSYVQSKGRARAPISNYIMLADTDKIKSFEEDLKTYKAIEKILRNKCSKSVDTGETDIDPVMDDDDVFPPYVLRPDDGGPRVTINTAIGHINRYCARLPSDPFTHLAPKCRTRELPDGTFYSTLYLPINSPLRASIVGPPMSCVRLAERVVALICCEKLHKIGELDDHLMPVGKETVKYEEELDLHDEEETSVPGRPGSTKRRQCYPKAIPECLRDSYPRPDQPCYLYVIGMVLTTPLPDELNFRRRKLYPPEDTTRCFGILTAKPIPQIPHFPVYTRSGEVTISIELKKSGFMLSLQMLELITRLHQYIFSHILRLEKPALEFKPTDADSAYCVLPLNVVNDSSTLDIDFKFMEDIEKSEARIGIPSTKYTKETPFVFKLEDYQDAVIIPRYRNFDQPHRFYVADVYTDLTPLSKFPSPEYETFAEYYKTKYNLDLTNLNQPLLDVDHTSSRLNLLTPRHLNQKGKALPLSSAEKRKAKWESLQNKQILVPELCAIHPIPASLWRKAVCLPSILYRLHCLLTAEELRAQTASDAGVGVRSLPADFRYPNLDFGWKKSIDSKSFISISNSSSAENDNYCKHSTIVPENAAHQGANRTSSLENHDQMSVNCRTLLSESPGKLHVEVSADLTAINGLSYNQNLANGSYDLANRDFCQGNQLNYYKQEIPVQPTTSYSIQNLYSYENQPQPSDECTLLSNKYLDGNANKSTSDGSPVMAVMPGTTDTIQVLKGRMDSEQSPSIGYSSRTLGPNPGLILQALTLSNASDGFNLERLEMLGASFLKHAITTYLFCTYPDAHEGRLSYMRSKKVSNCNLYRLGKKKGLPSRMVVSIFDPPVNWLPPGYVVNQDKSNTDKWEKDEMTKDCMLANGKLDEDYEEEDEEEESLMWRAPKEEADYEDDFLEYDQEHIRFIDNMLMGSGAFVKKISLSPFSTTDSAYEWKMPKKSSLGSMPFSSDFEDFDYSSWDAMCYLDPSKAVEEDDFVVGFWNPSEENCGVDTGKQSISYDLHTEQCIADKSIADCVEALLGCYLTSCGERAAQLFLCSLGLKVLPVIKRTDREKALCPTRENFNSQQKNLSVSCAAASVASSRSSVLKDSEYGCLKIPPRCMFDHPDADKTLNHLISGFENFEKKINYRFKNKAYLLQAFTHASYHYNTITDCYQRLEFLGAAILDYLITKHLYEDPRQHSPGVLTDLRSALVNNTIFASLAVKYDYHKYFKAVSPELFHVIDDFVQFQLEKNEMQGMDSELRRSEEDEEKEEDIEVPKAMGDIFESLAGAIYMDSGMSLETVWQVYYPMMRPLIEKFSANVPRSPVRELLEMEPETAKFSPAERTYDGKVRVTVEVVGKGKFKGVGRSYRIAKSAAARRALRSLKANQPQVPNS
Consider B1, for which the dissociation constant (Kd) was ~19 nM.

For the molecule B2, the Kd was ~19 nM.

For the molecule B3, the Kd is ~19 nM.

Turning to B4, the Kd was ~19 nM.

Regarding B5, the Kd is ~19 nM.

The target in the next series is T1, ciDicer (catalytically inactive human …). Briefly: EMSA; EMSA: 50 mM Tris pH 7.6, 50 mM NaCl, 10% glycerol, 0.05% NP-40, 2 mM DTT, 4 °C, 30 min, 2 pM 32P-RNA; 4-15% native PAGE in Tris-glycine; RNA heated 95 °C and snap-cooled; no Mg2+ added to DB buffer. The conditions noted are these: protein: recombinant; label: 5'-32P; hairpin, 1-nt 3' overhang (Group II).
As for B6, the Kd is 14 ± 3 nM.

As for B7, the Kd amounted to 16 ± 3 nM.

Take B8: the Kd was 16 ± 5 nM.

As for B9, the Kd was determined as 12 ± 2 nM.

With B10, the Kd amounted to 17 ± 5 nM.

As for B11, the Kd was 12 ± 7 nM.

For B12, the Kd stood at 13 ± 1 nM.

As to B13, the Kd was 17 ± 4 nM.

Staying with this series, now noted: protein: recombinant; label: 5'-32P; hairpin, 2-nt 3' overhang (Group I).
Take B14: the Kd was found to be 12 ± 2 nM.

B15: the Kd was found to be 12 ± 5 nM.

As to B16, the Kd was determined as 13 ± 4 nM.

Staying with this series, now noted: protein: recombinant; label: 5'-32P; hairpin, 14-nt apical loop, 2-nt 3' overhang (Group I).
As to B17, the Kd stood at 7 ± 2 nM.

Another series deals with ciDicer (catalytically inactive human Dicer) D1320A;D1709A (Homo sapiens) (UniProt Q9UPY3). Briefly: EMSA. The conditions noted are these: 5'-monophosphate; 3'-OH; EMSA: 50 mM Tris pH 7.6, 50 mM NaCl, 10% glycerol, 0.05% NP-40, 2 mM DTT, 4 °C, 30 min, 2 pM 32P-RNA; 4-15% native PAGE in …; RNA heated 95 °C and sn.
Sequence of ciDicer (catalytically inactive human Dicer) D1320A;D1709A (Homo sapiens) (Q9UPY3 whole entry D1320A/D1709A): as above
Regarding pre-let-7f-1 (7f1), the Kd was 10 nM.

(Values after paper PMC10806991, “Substrate promiscuity of Dicer toward precursors of the let-7 family and their 3′-end modifications”.)
